Results taken from publication PMC4486934.
pKd: −log10 of the molar value.

System: var2CSA (PfEMP1) (Plasmodium falciparum CS2)
Test: cell binding, microfluidic partitioning and qPCR
Conditions: 2'-fluoro pyrimidines, TBB: 20 mM HEPES pH 7.4, 150 mM NaCl, 2 mM CaCl2, room temperature (cell binding); for binding signal: CS2 vs uninfected RBCs

Sequence | binding signal (100 nM, P = 0.0002, BLI in …) | pKd (apparent Kd on CS2 infected RBCs, no enrichment on DC-J, BLI in TBB) | binding signal (defines non-specific threshold, BLI in TBB)
GGGAGCUCAGAAUAAACGCUCAACAACGGAUCACACGCAAGCGAAUCUAUGUCCUUCGGGUCUAAGGGUCGCUUUCGACAUGAGGCCCGGAUCCGGC [8.1-1] | 3.12 ddCp | 7.85 | –
GGGAGCUCAGAAUAAACGCUCAAAUGUCUCCAGCUCUUGUGGCGAACCCAAGCGGGUUGACCAGAAUGCAUCAUUCGACAUGAGGCCCGGAUCCGGC [scr8.1-1] | – | – | 1.24 ddCp
